Assay results as given in paper PMC4240464.

Assays:
[1] = target: Evasin-4–Fc (Rhipicephalus sanguineus); assay: SPR
[2] = target: Fc–Evasin-4 (Rhipicephalus sanguineus); assay: SPR
CCL5 (wild type) (human) = CCL5 (wild type) (human) (UniProt P13501)
CCL11 (human) = CCL11 (human) (UniProt P51671)
CCL22 (human) = CCL22 (human) (UniProt O00626)
CCL24 (human) = CCL24 (human) (UniProt O00175)
Chain of CCL24 (human) (O00175 27-119): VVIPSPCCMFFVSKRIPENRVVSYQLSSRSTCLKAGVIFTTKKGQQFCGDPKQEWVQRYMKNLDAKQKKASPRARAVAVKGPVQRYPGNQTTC

Chain of CCL8 (P80075 24-99): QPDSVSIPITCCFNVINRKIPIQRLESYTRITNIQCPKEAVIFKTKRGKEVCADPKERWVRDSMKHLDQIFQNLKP
Chain of CCL26 (Q9Y258 24-94): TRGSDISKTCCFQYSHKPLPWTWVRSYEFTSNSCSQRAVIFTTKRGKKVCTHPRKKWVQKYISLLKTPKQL
Chain of CCL7 (P80098 24-99): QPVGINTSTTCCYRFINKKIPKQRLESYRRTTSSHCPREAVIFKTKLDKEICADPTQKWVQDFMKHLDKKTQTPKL
Chain of CCL11 (human) (P51671 24-97): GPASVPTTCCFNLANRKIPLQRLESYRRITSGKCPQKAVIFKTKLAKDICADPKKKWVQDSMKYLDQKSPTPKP
Chain of CCL11 (P51671 24-97): as above
Chain of CCL3 (P10147 24-92): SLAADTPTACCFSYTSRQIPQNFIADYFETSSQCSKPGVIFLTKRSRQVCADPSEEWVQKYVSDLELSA
Chain of CCL22 (human) (O00626 25-93): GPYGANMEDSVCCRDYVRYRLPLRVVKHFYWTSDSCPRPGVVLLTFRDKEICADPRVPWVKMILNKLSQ
Chain of CCL5 (wild type) (human) (P13501 24-91): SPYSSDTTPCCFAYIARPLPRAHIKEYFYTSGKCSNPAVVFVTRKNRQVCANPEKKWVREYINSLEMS

Substance | Kd [1] | Kd [2] | IC50, inhibition of chemotaxis of L1.2 CCR5 cells to CCL5 (EC80 1 nM) (CCL5 (wild type) (human)) | IC50, inhibition of chemotaxis of L1.2 CCR3 cells to CCL11 (EC80 1 nM) (CCL11 (human)) | IC50, inhibition of chemotaxis of L1.2 CCR4 cells to CCL22 (EC80 1 nM) (CCL22 (human)) | IC50, inhibition of chemotaxis of L1.2 CCR3 cells to CCL24 (EC80 10 nM) (CCL24 (human))
CCL3 (from UniProt P10147 24-92) (ligand) | 6.79 nM | 0.277 nM |  |  |  | 
CCL5 E26A (from UniProt P13501 24-91) (ligand) | 1.72 nM | 0.02 nM |  |  |  | 
CCL7 (from UniProt P80098 24-99) (ligand) | 0.053 nM | 0.134 nM |  |  |  | 
CCL8 (from UniProt P80075 24-99) (ligand) | 0.015 nM | 0.088 nM |  |  |  | 
CCL11 (from UniProt P51671 24-97) (ligand) | 3.6 nM | 0.099 nM |  |  |  | 
CCL26 (from UniProt Q9Y258 24-94) (ligand) | 15.6 nM | 17.3 nM |  |  |  | 
Evasin-4–Fc (Fc fusion) |  |  | 9.6 nM | 1540 nM | 38 nM | 642 nM
Fc–Evasin-4 (Fc fusion) |  |  |  | 88 nM |  | 113 nM
